Experimental data from US20080213836.
Numbering of substitutions follows the chain as printed. Numbers in names are those of the source.

T1: Boc-Glu(OBzl)-Ala-Arg-MCA
T1 chain: EAR

T2: Gly-Asp-Asp-Asp-Asp-Lys-β-naphthylamide
T2 chain: GDDDDK

T3: Z-Phe-Arg-MCA
T3 chain: FR

T4: Pro-Phe-Arg-MCA
T4 chain: PFR

B1: Medaka EP-1 serine protease domain mutant K63A (protein)
chain: VVGGVNAEKGAWPWMVSLHWRGRHGCGASLIGRDWLLTAAHCVYGANTHLQYWSAVLGLHAQSSMNSQEVQIRQVDRIIINKNYNRRTKEADIAMMHLQQPVNFTEWVLPVCLASEDQHFPAGRRCFIAGWGRDAEGGSLPDILQEAEVPLVDQDECQRLLPEYTFTSSMLCAGYPEGGVDSCQGDSGGPLMCLEDARWTLIGVTSFGVGCGRPERPGAYARVSAFTSWIAETRRSSFSDLD
B2: Medaka EP-1 serine protease domain mutant F144A (protein)
chain: B1 chain with A46K, F127A
B3: Medaka EP-1 serine protease domain mutant P193A (protein)
chain: B1 chain with A46K, P176A
B4: Medaka EP-1 serine protease domain mutant E173K (protein)
chain: B1 chain with A46K, E156K
B5: Medaka EP-1 serine protease domain mutant K63E (protein)
chain: B1 chain with A46E
B6: Medaka EP-1 serine protease domain mutant T105R (protein)
chain: B1 chain with A46K, T88R
B7: Medaka EP-1 serine protease domain mutant F144S (protein)
chain: B1 chain with A46K, F127S
B8: Medaka EP-1 serine protease domain mutant T105A (protein)
chain: B1 chain with A46K, T88A

How the values were obtained:
[1] = molecular target: T1, Boc-Glu(OBzl)-Ala-Arg-MCA
[2] = molecular target: T2, Gly-Asp-Asp-Asp-Asp-Lys-β-naphthylamide
Z-Phe-Arg-MCA = molecular target: T3, Z-Phe-Arg-MCA
[3] = molecular target: recombinant fusion protein of Medaka trypsinogen
Pro-Phe-Arg-MCA = molecular target: T4, Pro-Phe-Arg-MCA

Row | Protein | enzyme activity against wild-type [1] | enzyme activity against wild-type [2] | enzyme activity against wild-type (Z-Phe-Arg-MCA) | conversion of trypsinogen to active enzyme [3] | enzyme activity against wild-type (Pro-Phe-Arg-MCA)
1 | B1 | The same held true for all the other mutants except for F144A | The same held true for all the other mutants except for F144A | The same held true for all the other mutants except for F144A | A total of 12 mutants could convert the recombinant Medaka trypsinogen to its active enzyme (data not shown) | The same held true for all the other mutants except for F144A
2 | B2 | hydrolyzed the GD4K-βNA as well as the three MCA-containing substrates at an elevated rate when compared with the wild-type enzyme | hydrolyzed the GD4K-βNA as well as the three MCA-containing substrates at an elevated rate when compared with the wild-type enzyme | hydrolyzed the GD4K-βNA as well as the three MCA-containing substrates at an elevated rate when compared with the wild-type enzyme | A total of 12 mutants could convert the recombinant Medaka trypsinogen to its active enzyme (data not shown) | hydrolyzed the GD4K-βNA as well as the three MCA-containing substrates at an elevated rate when compared with the wild-type enzyme
3 | B3 | The same held true for all the other mutants except for F144A | The same held true for all the other mutants except for F144A | The same held true for all the other mutants except for F144A | A total of 12 mutants could convert the recombinant Medaka trypsinogen to its active enzyme (data not shown) | The same held true for all the other mutants except for F144A
4 | B4 | consistently resulted in reduced enzyme activity for synthetic peptide substrates | consistently resulted in reduced enzyme activity for synthetic peptide substrates | consistently resulted in reduced enzyme activity for synthetic peptide substrates | A total of 12 mutants could convert the recombinant Medaka trypsinogen to its active enzyme (data not shown) | consistently resulted in reduced enzyme activity for synthetic peptide substrates
5 | B5 | The same held true for all the other mutants except for F144A | The same held true for all the other mutants except for F144A | The same held true for all the other mutants except for F144A | A total of 12 mutants could convert the recombinant Medaka trypsinogen to its active enzyme (data not shown) | The same held true for all the other mutants except for F144A
6 | B6 | The same held true for all the other mutants except for F144A | The same held true for all the other mutants except for F144A | The same held true for all the other mutants except for F144A | A total of 12 mutants could convert the recombinant Medaka trypsinogen to its active enzyme (data not shown) | The same held true for all the other mutants except for F144A
7 | B7 | consistently resulted in reduced enzyme activity for synthetic peptide substrates | consistently resulted in reduced enzyme activity for synthetic peptide substrates | consistently resulted in reduced enzyme activity for synthetic peptide substrates | A total of 12 mutants could convert the recombinant Medaka trypsinogen to its active enzyme (data not shown) | consistently resulted in reduced enzyme activity for synthetic peptide substrates
8 | B8 | The same held true for all the other mutants except for F144A | The same held true for all the other mutants except for F144A | The same held true for all the other mutants except for F144A | A total of 12 mutants could convert the recombinant Medaka trypsinogen to its active enzyme (data not shown) | The same held true for all the other mutants except for F144A
